Here are results for 94 variants from the supplement of paper PMC10567573.

B1: DLC1 (parent)
chain: AIQGISEKEKAEIEAKEACDWLRA
B2: NET1 (parent)
chain: RVRPLARVTSLANLISPVRNGAVR
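Further: lentivirally expressed fusions sorted by FACS into six bins by GFP to DsRed ratio, PSI derived from sequencing read proportions per bin multiplied by bin number.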

In one data set the parent is B1. In words: protein stability index of a GFP-peptide fusion (GPS, HEK-293T) (PSI 1-6); higher = more stable. Particulars: c terminus: a fixed tail appended.
As for AIQGISEKEKAEIEAKEACDWLRM [A24M], the protein stability index is 3.52.

Turning to AIQGISEKEKAEIEAKEACDWLRY [A24Y], the protein stability index was 4.72.

Regarding AIQGISEKEKAEIEAKEACDWLRT [A24T], the protein stability index was 4.46.

Turning to AIQGISEKEKAEIEAKEACDWLRR [A24R], the protein stability index is 4.23.

Take AIQGISEKEKAEIEAKEACDWLRD [A24D]: the protein stability index turned out to be 5.14.

Consider AIQGISEKEKAEIEAKEACDWLRH [A24H], for which the protein stability index is 4.66.

As for AIQGISEKEKAEIEAKEACDWLRC [A24C], the protein stability index is 4.55.

On to AIQGISEKEKAEIEAKEACDWLRF [A24F], for which the protein stability index was 4.32.

For the variant AIQGISEKEKAEIEAKEACDWLRK [A24K], the protein stability index worked out at 4.

Turning to AIQGISEKEKAEIEAKEACDWLRP [A24P], the protein stability index was found to be 4.64.

As for AIQGISEKEKAEIEAKEACDWLRS [A24S], the protein stability index amounted to 4.65.

As for AIQGISEKEKAEIEAKEACDWLRV [A24V], the protein stability index worked out at 4.58.

In the case of AIQGISEKEKAEIEAKEACDWLRQ [A24Q], the protein stability index was found to be 4.67.

Consider AIQGISEKEKAEIEAKEACDWLRI [A24I], for which the protein stability index was determined as 4.44.

As for AIQGISEKEKAEIEAKEACDWLRE [A24E], the protein stability index was found to be 5.03.

With AIQGISEKEKAEIEAKEACDWLRL [A24L], the protein stability index is 4.46.

As to AIQGISEKEKAEIEAKEACDWLRG [A24G], the protein stability index came out at 4.78.

On to AIQGISEKEKAEIEAKEACDWLRW [A24W], for which the protein stability index amounted to 3.7.

For AIQGISEKEKAEIEAKEACDWLRN [A24N], the protein stability index amounted to 4.75.

Regarding AIQGISEKEKAEIEAKEACDTLRA [W21T], the protein stability index came to 5.17.

AIQGISEKEKAEIEAKEACDPLRA [W21P]: the protein stability index stood at 5.

For the variant AIQGISEKEKAEIEAKEACDSLRA [W21S], the protein stability index stood at 5.05.

Regarding AIQGISEKEKAEIEAKEACDQLRA [W21Q], the protein stability index is 5.47.

AIQGISEKEKAEIEAKEACDYLRA [W21Y]: the protein stability index amounted to 4.68.

Turning to AIQGISEKEKAEIEAKEACDVLRA [W21V], the protein stability index was 4.89.

With AIQGISEKEKAEIEAKEACDRLRA [W21R], the protein stability index was determined as 5.4.

As for AIQGISEKEKAEIEAKEACDNLRA [W21N], the protein stability index was 5.1.

In the case of AIQGISEKEKAEIEAKEACDWLQA [R23Q], the protein stability index came to 5.25.

For AIQGISEKEKAEIEAKEACDWLNA [R23N], the protein stability index is 5.1.

On to AIQGISEKEKAEIEAKEACDWLKA [R23K], for which the protein stability index amounted to 4.62.

With AIQGISEKEKAEIEAKEACDWLCA [R23C], the protein stability index turned out to be 4.73.

On to AIQGISEKEKAEIEAKEACDWLEA [R23E], for which the protein stability index was 5.36.

Take AIQGISEKEKAEIEAKEACDWLHA [R23H]: the protein stability index came to 4.75.

On to AIQGISEKEKAEIEAKEACDWLDA [R23D], for which the protein stability index came out at 5.42.

On to AIQGISEKEKAEIEAKEACDWLVA [R23V], for which the protein stability index was 4.31.

Turning to AIQGISEKEKAEIEAKEACDWLFA [R23F], the protein stability index worked out at 4.33.

Take AIQGISEKEKAEIEAKEACDWLYA [R23Y]: the protein stability index is 3.8.

AIQGISEKEKAEIEAKEACDWLMA [R23M]: the protein stability index worked out at 4.45.

In the case of AIQGISEKEKAEIEAKEACDWLAA [R23A], the protein stability index stood at 4.67.

AIQGISEKEKAEIEAKEACDWLTA [R23T]: the protein stability index came to 5.14.

Regarding AIQGISEKEKAEIEAKEACDWLLA [R23L], the protein stability index is 3.87.

AIQGISEKEKAEIEAKEACDWLIA [R23I]: the protein stability index was determined as 4.68.

On to AIQGISEKEKAEIEAKEACDWLSA [R23S], for which the protein stability index was found to be 4.95.

Consider AIQGISEKEKAEIEAKEACDWLWA [R23W], for which the protein stability index worked out at 4.91.

Consider AIQGISEKEKAEIEAKEACDWLGA [R23G], for which the protein stability index turned out to be 4.42.

As to AIQGISEKEKAEIEAKEACDWLPA [R23P], the protein stability index came to 4.7.

For the variant AIQGISEKEKAEIEAKEACDWHRA [L22H], the protein stability index was determined as 5.

Turning to AIQGISEKEKAEIEAKEACDWYRA [L22Y], the protein stability index worked out at 4.22.

For the variant AIQGISEKEKAEIEAKEACDWKRA [L22K], the protein stability index is 5.38.

For AIQGISEKEKAEIEAKEACDWMRA [L22M], the protein stability index was found to be 4.73.

Consider AIQGISEKEKAEIEAKEACDWGRA [L22G], for which the protein stability index is 4.98.

Regarding AIQGISEKEKAEIEAKEACDWTRA [L22T], the protein stability index turned out to be 4.82.

As for AIQGISEKEKAEIEAKEACDWFRA [L22F], the protein stability index turned out to be 4.61.

Take AIQGISEKEKAEIEAKEACDWDRA [L22D]: the protein stability index worked out at 5.49.

As to AIQGISEKEKAEIEAKEACDWQRA [L22Q], the protein stability index came out at 5.03.

On to AIQGISEKEKAEIEAKEACDWNRA [L22N], for which the protein stability index was found to be 5.24.

AIQGISEKEKAEIEAKEACDWIRA [L22I]: the protein stability index was 4.98.

Turning to AIQGISEKEKAEIEAKEACDWPRA [L22P], the protein stability index is 5.2.

AIQGISEKEKAEIEAKEACDWARA [L22A]: the protein stability index amounted to 5.03.

With AIQGISEKEKAEIEAKEACDWRRA [L22R], the protein stability index was 4.5.

With AIQGISEKEKAEIEAKEACDWERA [L22E], the protein stability index stood at 5.62.

As to AIQGISEKEKAEIEAKEACDWCRA [L22C], the protein stability index is 4.17.

As for AIQGISEKEKAEIEAKEACDWSRA [L22S], the protein stability index was 5.09.

AIQGISEKEKAEIEAKEACDWVRA [L22V]: the protein stability index is 4.73.

For the variant AIQGISEKEKAEIEAKEACDWWRA [L22W], the protein stability index stood at 4.28.

In a further data set the parent is B2. The description is as above. Particulars: c terminus: a fixed tail appended.
For the variant RRRPLARVTSLANLISPVRNGAVR [V2R], the protein stability index turned out to be 2.92.

Turning to RIRPLARVTSLANLISPVRNGAVR [V2I], the protein stability index worked out at 2.25.

With RKRPLARVTSLANLISPVRNGAVR [V2K], the protein stability index was determined as 3.65.

Turning to RGRPLARVTSLANLISPVRNGAVR [V2G], the protein stability index worked out at 3.08.

Consider RSRPLARVTSLANLISPVRNGAVR [V2S], for which the protein stability index stood at 3.57.

For the variant RNRPLARVTSLANLISPVRNGAVR [V2N], the protein stability index stood at 2.79.

RARPLARVTSLANLISPVRNGAVR [V2A]: the protein stability index turned out to be 3.

Consider RERPLARVTSLANLISPVRNGAVR [V2E], for which the protein stability index came out at 3.69.

As for RPRPLARVTSLANLISPVRNGAVR [V2P], the protein stability index stood at 3.11.

With RYRPLARVTSLANLISPVRNGAVR [V2Y], the protein stability index came out at 2.62.

Take RCRPLARVTSLANLISPVRNGAVR [V2C]: the protein stability index amounted to 2.64.

Consider RHRPLARVTSLANLISPVRNGAVR [V2H], for which the protein stability index is 2.91.

As for RMRPLARVTSLANLISPVRNGAVR [V2M], the protein stability index was 3.04.

On to RFRPLARVTSLANLISPVRNGAVR [V2F], for which the protein stability index came out at 1.97.

With RWRPLARVTSLANLISPVRNGAVR [V2W], the protein stability index was found to be 2.67.

RQRPLARVTSLANLISPVRNGAVR [V2Q]: the protein stability index worked out at 3.59.

Turning to RTRPLARVTSLANLISPVRNGAVR [V2T], the protein stability index worked out at 3.14.

Turning to RLRPLARVTSLANLISPVRNGAVR [V2L], the protein stability index was determined as 2.29.

For RDRPLARVTSLANLISPVRNGAVR [V2D], the protein stability index stood at 3.77.

EVRPLARVTSLANLISPVRNGAVR [R1E]: the protein stability index was determined as 2.79.

In the case of NVRPLARVTSLANLISPVRNGAVR [R1N], the protein stability index came to 3.42.

For the variant QVRPLARVTSLANLISPVRNGAVR [R1Q], the protein stability index worked out at 3.19.

For the variant HVRPLARVTSLANLISPVRNGAVR [R1H], the protein stability index is 2.87.

In the case of GVRPLARVTSLANLISPVRNGAVR [R1G], the protein stability index is 3.11.

Regarding WVRPLARVTSLANLISPVRNGAVR [R1W], the protein stability index came to 2.36.

For TVRPLARVTSLANLISPVRNGAVR [R1T], the protein stability index was found to be 3.25.

As to MVRPLARVTSLANLISPVRNGAVR [R1M], the protein stability index stood at 2.97.

Regarding CVRPLARVTSLANLISPVRNGAVR [R1C], the protein stability index came to 2.61.

LVRPLARVTSLANLISPVRNGAVR [R1L]: the protein stability index was 2.
